T1: thermolysin-cleaved EBOV GP on Jurkat-GP cells (cleaved GP) (Zaire ebolavirus, Makona (GP1 core …, strain))
T1 chain 1: not shown
T1 chain 2: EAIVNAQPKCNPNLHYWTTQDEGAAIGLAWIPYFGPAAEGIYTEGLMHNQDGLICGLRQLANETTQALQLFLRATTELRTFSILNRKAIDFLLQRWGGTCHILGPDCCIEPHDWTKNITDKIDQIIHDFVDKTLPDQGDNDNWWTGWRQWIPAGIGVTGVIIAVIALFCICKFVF

B1: 5.6.c2687 (antibody, V domains shown)
VH: QVQLMESGGGVVQPGRSLRLSCAASGFTFSSYGMHWVRQAPGKGLEWVAVIWNDGSNKYYADSVKGRFTISRDNSKNTLYLQMNSLRVEDTAVYYCARDSSAPAAIFYDAFDMWGQGTMVTVSS
VL: EIVMTQSPATLSVSPGERATLSCRASQSINSNLAWYQQKPGQAPRLLIYGVSTRATGIPARFSGSGSGTEFTLTISSLQSEDFAVYYCQQYNNWWTFGQGTKVEIK
B2: 5.6.c2686 (antibody, V domains shown)
VH: QVQLQESGPGLVKPSGTLSLTCAVSGGSITSSDWWSWVRQTPGKGLEWIGQIYSGGMTDYNPSLKSRVTMSLDKSKNQFSVKLNSVTAADTAVYYCARHRLNAEMYCSGGSCYPADSNWFDPWGQGTLVTVSS
VL: DIQMTQSPSSLSASVGDRVTITCRASQSISTYLNWYQQKPGKAPKLLIYATSSLQSGVPSRFSGSGSGTDFTFTISSLQPEDFATYYCQQSYSTPFTFGPGTKVDIK
B3: 5.6.c2692 (antibody, V domains shown)
VH: QVTLRESGPALVKSTQTLTLTCTFSGFSLSTSGMCVSWIRQPPGKALEWLALIDWDDGKYYSTSLKTRLTISKGTSKNQVVLTMTNMDPVDTATYYCARIRYTSDWFYDAFDIWGQGTMVTVSS
VL: ETVMTQSPATLSVSPGERATLSCRASQSVNSNLAWYQQRPGQAPRLLISGASTRATGIPARFSGSGSGTEFTLTISSLQSEDFAVYYCQQYNDWPPLTFGGGTKVEIK
B4: 5.6.c2762 (antibody, V domains shown)
VH: QLQLQESGPGLVRPSETLSLTCTVSGGSINTNVYYWGWIRQPPGKGLEWIGTIHYSGSTYYNPSVKSRVTISVDTSTNQFSLRLNSLTAADTAVYYCARLAYGSGWAGWFDPWGQGTLVTVSS
VL: SSELTQDPAVSVALGQTVRITCQGDSLRVYYATWYQQKPGQAPVLVIYAKNSRPSGIPDRFSGSSSGNTASLTITGTQAEDEADYYCNSRDSSGKVWVFGGGTKLTVL
B5: 5.6.c2712 (antibody, V domains shown)
VH: QVQLQESGPGLVKPSETLSLTCSVSGGSISSDYWSWIRQPPGKGLEWIGYIYYDGSTNFNPSLKSRVTISVDTSKNQLSLKLSSVTAADTAVYYCARVRRWIELGTGLGDWFDPWGQGTLVTVSS
VL: SSELTQDPAVSVALGQTVRITCQGDSLRSYYASWHQLKPGQAPVVVIYGIHNRPSGIPDRFSGSSSGNTASLTITGAQAEDEADYYCSSRDSSGNHLVFGGGTKLTVL
B6: 5.6.c2693 (antibody, V domains shown)
VH: QVQVVESGGGVVQPGRSLRLTCATSGFTFRSYGMHWVRQAPGKGLEWVAGISYDGSNKYYADSVKGRFSISRDNSKNTVYLQMNSLRVEDTAVYYCANQLICVNGVCYKTTSVAGIDYWGQGTLVTVSS
VL: DIQMTQSPSSLSASVGDRVTITCRASQDISNYLAWFQQKPGKAPKCLIYAASSLQSGVPSKFSGSGSGTDFTLTISSLQPEDFATYYCQQYKDYPLTFGPGTKVDVR
B7: 5.6.c2725 (antibody, V domains shown)
VH: QVQLQESGPGLVKPSQTLSLTCTVSGGSISSGGYYWSWIRQHPGKGLEWIGYIYYSGSTYYNPSLKSRVSISAGTSKNQFSLKLSSVTAADTAVYYCARAYCGGDCYSLLYYYYGMDVWGQGTTVTVSS
VL: QSALTQPASVSGSPGQSITISCTGTSSDVGGYNSVSWYQQHPGKAPKLMIYDVSNRPSGVSDRFSGSKSGNTASLTISGLQAEDEADYYCSSYTSSSTLVFGGGTKLTVL
B8: 5.6.c2724 (antibody, V domains shown)
VH: QVQLQQLGAGLLKPSETLSLTCAVSGGSFSGYYWSWIRQSPGKGLEWIGEVNQSGNTNYNPSLKSRVTISPDTSKNQFSLKLSSVTAADTAVYYCARGLEDTALLADAFDIWGQGTLVTVSS
VL: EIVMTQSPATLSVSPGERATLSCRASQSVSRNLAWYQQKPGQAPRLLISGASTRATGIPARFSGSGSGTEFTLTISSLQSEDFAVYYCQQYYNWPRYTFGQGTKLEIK

Tests used:
[1] = molecular target: T1, thermolysin-cleaved EBOV GP on …
[2] = molecular target: EBOV GP ectodomain residues 1-636 (GPec) (Zaire ebolavirus, strain  …, UniProt Q05320)

Binder	binding result [1]	binding result [2]
B1	binds	binds
B2	binds	binds
B3	binds	binds
B4	binds	binds
B5	binds	binds
B6	binds	binds
B7	binds	binds
B8	binds	binds

From paper PMC6908968 (Cell, 2019)
